Substitutions are numbered along the chain they refer to.
B1: NI-205.21G1 (antibody, human IgG1, V domains shown)
VH: QVQLVESGGGVVQPGMSLRLSCAASGFSFSSHGMHWVRQTPGKGLEWLAVISYDASNKSYADSVKGRFTISRDNSKKTLYLQMDSLRVEDTALYYCANAFSSSASGGYWGQGTLVTVSS
VL: DVVMTQSPLSLPVTLGQPASISCRSSQSLVHSDGVTYLNWFQQRPGQSPRRLIYKVSNRDSGVPDRFSGSGSGTDFTLEISRVEAEDVGIYYCMQGTHWPPWTFGQGTKVEIK
B2: NI-205.68G5 (antibody, human IgG1, V domains shown)
VH: QVQLVESGGGVVQPGRSLRLSCAASGFTFSSYGMHWVRQAPGKGLEWVAIIYYDSSQRYYADSVKGRFTISRDNSKNALYLQMNSLRAEDTALYYCARDLPFHYHRSASFAPSDTWGQGTLVTVSS
VL: EIVLTQSPGTLSLSPGERATLSCRASQAVTNNYLAWYQQKPGQAPRLLVYAASSRATGIPDRFYGSGSGADFTLTISRLEPEDFAVYYCQQYGTSPITFGQGTRLEIK
B3: NI-205.14H5 (antibody, human IgG1, V domains shown)
VH: EVQLLESGGGLVQPGGSLRLSCAASGFTFRNYAMAWVRQAPGKGLEWVSAIPARGDKTYYADSVRGRFTISRDISKSALYLQMNSLRVEDTAVYYCAKAHHLYNKNFDYWGQGTLVTVSS
VL: EIVLTQSPGTLSLSPGETVTLSCRASQSVSSSNLAWYQQKPGQAPRLLIYGASSRATGIPDRFSGRGSGTDFTLTISRLEPEDFAVYYCQHYGTFGQGTKVDIK
B4: NI-205.8F8 (antibody, human IgG1, V domains shown)
VH: EVQLLESGGGLVQPGGSLRLSCAASGYTFSYYAMSWVRQAPGKGLEWVSTIGDSGSTTHYADSVKGRFTISRDNSKSTLYLQMNSLRAEDTAVYYCAKGLGPVAAIGDYWGQGTLVTVSS
VL: QSVLTQPPSASGTPGQRVTISCSGSSSNIGSNNVYWYQQLPGTAPKLLVYRNNQRPSGVPDRVSGSKSGSSASLAISGLRSEDEADYYCAAWDDSLRGYVFGTGTKVTVL
B5: NI-205.58E11 (antibody, human IgG1, V domains shown)
VH: EVQLLESGGGLVQPGGSLRLSCAASGFTFSSYSMSWVRQAPGKGLEWVATVGYGGTIYYADSVKGRFTISRDNSKNTLYLEMNSLRAEATAVYYCAKANYGGNRFGLDVWGQGTTVTVSS
VL: QSALTQPPSASGSPGQSVTISCTGTSSDVGGYNYVSWYQHQPGKAPKLMIYEVSKRPSGVPDRFSGSKSGNTASLTVSGLQAEDEADYYCSSYAGSNNLGVFGTGTEVTVL
B6: NI-205.36D5 (antibody, human IgG1, V domains shown)
VH: B2 VH with G26R, I50L, S55A, S56T, R58K, N84T, E89D, L93V, F102Y, S113A
VL: B2 VL with A28T, V29I, T30S, A85V, T94S

Target: synthetic peptide of residues 390-414 of TDP-43 with phosphorylation at residues 409/410 (human)
Sequence (peptide, as listed by the source): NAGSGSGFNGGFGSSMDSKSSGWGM
Experiment: direct ELISA, coated antigen

Binder | EC50 [nM]
B1 | 49.5
B2 | 16.9
B3 | 0.9
B4 | 5.1
B5 | 6.9

Target: synthetic peptide of residues 390-414 of TDP-43 with phosphorylation at residues 409/410 (human)
Experiment: direct ELISA, coated antigen; direct ELISA, coated synthetic phospho-409/410 peptide 390-414 (3.3 ug/ml)

Binder | EC50 [nM]
B6 | 4.3

From patent US20170152308A1
